Drawing on paper doi:10.1101/2021.05.27.445985, this text covers Kd for 1 substance.

The assay deals with Cy5-labeled human neutrophil peptide 1 (HNP1) (human). Nature of the assay: fluorescence polarisation.

As a reminder, the Kd is the concentration at which binding is half-saturated. Read a high Kd as lower affinity.

For “Bovine serum albumin (from UniProt P02769 25-607) (natural protein)”, the Kd came out at 3.4 µM.
